Assay results published in the DeepSol protein solubility set.

test: soluble on expression in E. coli; label from the status in PepcDB or PDB records

Sequence | soluble on expression in E. coli
MKTKQTIAASTLALAMIAGANSAHAEVNDATPQQSTGDRLAEIKQHKQGLDAKLQQHKENVDQTLNELNKVKENVDTKVNELHERKQVADEKINEIKQHKQELDAKLQQDKQIAEDKIAEIKEHKKQVEDKVAEVKEHKQNIDNKVNEIKEHKQTVDEKVNEMKQHKENIDQKVNELKEVKKQVDEKLAELKKAKQTAEDKLAELKENKPNTGNTLEELKKIKSNLDSLSANLELAKQDVKNKLAALQEARQDLINKINEIKQSKQTVSDDLSKKKQDLDIKINDFKHTEKKIDDKLAEIHTTKQNIDNKINEVSQSKQTETKTGTTNANNNARELPNAGSKQSNNMALGMLSVLGGILLVTRNKIKTLFSK | not soluble
MHHHHHHSSGRENLYFQGTFAERYNIVCMLGKGSFGEVLKCKDRITQQEYAVKVINKASAKNKDTSTILREVELLKKLDHPNIMKLFEILEDSSSFYIVGELYTGGELFDEIIKRKRFSEHDAARIIKQVFSGITYMHKHNIVHRDLKPENILLESKEKDCDIKIIDFGLSTCFQQNTKMKDRIGTAYYIAPEVLRGTYDEKCDVWSAGVILYILLSGTPPFYGKNEYDILKRVETGKYAFDLPQWRTISDDAKDLIRKMLTFHPSLRITATQCLEHPWIQKYSSETPTISDLPSLESAMTNIRQFQAEKKLAQAALLYMASKLTTLDETKQLTEIFRKLDTNNDGMLDRDELVRGYHEFMRLKGVDSNSLIQNEGSTIEDQIDSLMPLLDMDGSGSIEYSEFIASAIDRTILLSRERMERAFKMFDKDGSGKISTKELFKLFSQADSSIQMEELESIIEQVDNNKDGEVDFNEFVEMLQNFVRNE | soluble
MSLIAVKPKKGHLLVAEPSITGDLSFNRSVVLLADHNCEGSVGFILNKPLGYTINDLIPEISARFKVYNGGPIEQDNLYFIHNIPQLIPNSIEIAEGIYWGGCFDSTRDLINQGKITQNNIRFFLGYSGWDAAQLQEELESNSWIISENNLHNKIIGKSSTDLWREKIKEQGGDYLIWSNAPENPILNEGHHHHHH | soluble
MGSDKIHHHHHHMYMEKRQFIKDIAVNGDVNGLFLIASANQMQAKNGPFWRLEICDASGTLNAKIWSPLSASFETLTPGDVVHLEGRAGLFRDRIDISVDRMRVLAPYELEALDMGQFLVSSERDPAEMLTELLELCREVFTHRPWRKFVTGVLRNEELAEALKAAPAAKSVHHAYRGGLLEHILSVSGLCMRIADHYPEIDRQVLLAGAIFHDIGKAWELSGGLVNDYTDEGRLLGHIHIGLEQLEPFLRRSGLEHELAVHFKHLILSHHGEYEFGSPRRPKTREAMVLHYADNLDAKMAQLNSLFKGFEDGETGWTPFQPTLQRFLYNPVRTPETETVRRKRPETPREEQCSLLSKG | not soluble
MSLTNKWIGALGLLLSGQLMASELVIESWRADDKALWEQKIIPAFEAANPGIKVKFNPVPNVNYTPTLWENLKAGKAGDLITCRPFDDSLALFKAGHLAEITEMAGMENFPSFAQAPWQTDSGAQTFCVPMASVIHGFFYNKKIFNELGLSVPQTREQFFTVLDKVKADGRYIPLSMSGSESWVASELGYQNIGPNYWKGEDGRLALINGQEHLDDSQYVKVFEELARWRAYLGEDGELRDYGTSNELFTSGKAALYVAGSWEIAPFTDKVDFGVMRPPVAKQGDGCFFTDHTDIGMGMNPASKNPQAAMAFLQWLTTPEFAELYTNSLPGFFSLSNHFFDVTNPAAREMMEWRDQCDSTIRVATQILSRGQPKLGDELAEVSQAVLVGKMTPTAAAERLEQGLKRWYAPHQTRKAKEQECQCVEPISPTTRLNTLPVVDIAPVVASDPVPPTEATILSEEGGSHHHHHH | soluble
